B1: ATGL (PNPLA2, patatin-like phospholipase domain-containing protein 2), human, full length / perilipin-5, mouse (mPlin5) (parent)
chain 1: MFPREKTWNISFAGCGFLGVYYVGVASCLREHAPFLVANATHIYGASAGALTATALVTGVCLGEAGAKFIEVSKEARKRFLGPLHPSFNLVKIIRSFLLKVLPADSHEHASGRLGISLTRVSDGENVIISHFNSKDELIQANVCSGFIPVYCGLIPPSLQGVRYVDGGISDNLPLYELKNTITVSPFSGESDICPQDSSTNIHELRVTNTSIQFNLRNLYRLSKALFPPEPLVLREMCKQGYRDGLRFLQRNGLLNRPNPLLALPPARPHGPEDKDQAVESAQAEDYSQLPGEDHILEHLPARLNEALLEACVEPTDLLTTLSNMLPVRLATAMMVPYTLPLESALSFTIRLLEWLPDVPEDIRWMKEQTGSICQYLVMRAKRKLGRHLPSRLPEQVELRRVQSLPSVPLSCAAYREALPGWMRNNLSLGDALAKWEECQRQLLLGLFCTNVAFPPEALRMRAPADPAPAPADPASPQHQLAGPAPLLSTPAPEARPVIGALGL
chain 2: MDQRGEDTTLAPHSRMSGDQTAQDPGSSLGELDQQNVVNRVVALPLVKATCTAVSSAYNSAKDRHPLLGSACRLAEHCVCSVTTCALDHAQPLLEHLQPQLATVNDLACRGLDKLEEKLPFLQQPSDMVVTSAKDTVAKSVTGMVDLAQRGRRWSGELRRSMSQAMDMVLGKSEKLVDRFLPMTEAELAVLAAEAEGPEVGTVEEQRQQQGYFVRLGSLSARLRHLAYEHSLGKLRQSKHRTQEMLAQLQETLELIQHMQRGASPSPTFHPPKTQELWGSWSPCLENGRSHSEVELETLALSRSLTLELQNAVDALAGCVRGLPPSAQAKVAEVQRSVDALQATFADAHCLGDVAPTALAEGRGSVARAHACVDEFLDLVLRAMPLPWLVGPFAPILVEQSEPLINLATCVDEVVGDPDPRWAHMDWPAQKRAWEAESADPGGQEAEPPRGQGKHTMMPELDF
B2: ATGL (PNPLA2, patatin-like phospholipase domain-containing protein 2), human, full length / perilipin-1, mouse (mPlin1) (parent)
chain 1: B1 chain 1
chain 2: MSMNKGPTLLDGDLPEQENVLQRVLQLPVVSGTCECFQKTYNSTKEAHPLVASVCNAYEKGVQGASNLAAWSMEPVVRRLSTQFTAANELACRGLDHLEEKIPALQYPPEKIASELKGTISTRLRSARNSISVPIASTSDKVLGATLAGCELALGMAKETAEYAANTRVGRLASGGADLALGSIEKVVEFLLPPDKESAPSSGRQRTQKAPKAKPSLVRRVSTLANTLSRHTMQTTAWALKQGHSLAMWIPGVAPLSSLAQWGASAAMQVVSRRQSEVRVPWLHNLAASQDESHDDQTDTEGEETDDEEEEEESEAEENVLREVTALPNPRGLLGGVVHTVQNTLRNTISAVTWAPAAVLGTVGRILHLTPAQAVSSTKGRAMSLSDALKGVTDNVVDTVVHYVPLPRLSLMEPESEFRDIDNPSAEAERKGSGARPASPESTPRPGQPRGSLRSVRGLSAPSCPGLDDKTEASARPGFLAMPREKPARRVSDSFFRPSVMEPILGRAQYSQLRKKS

The values below come from article PMC10958042.

One assay covers variants of B1. The experiment in a line: LUMIER: Protein A-ATGL variant and firefly luciferase-partner co-expressed in HEK293T, lysates immunoprecipitated on IgG-coated plates, co-precipitated partner measured as luciferase luminescence. Conditions: with perilipin-5, mouse (mPlin5), transient co-transfection, IgG-coated LUMITRAC plates, 2 h at 4 °C, three PBS washes, Bright-Glo luciferase reagent, triplicates per assay, two …, parent: 0.15, not graded, scale: log2 fold change of co-immunoprecipitated luminescence relative to wild-type ATGL within each experiment.
Take chain 1 F35E: the screen value is -0.313.

As for chain 1 F35A, the screen value was -0.563.

Take chain 1 L159A: the screen value is -1.17.

With chain 1 P156K, the screen value is -0.669.

Turning to chain 1 G153A, the screen value is -0.676.

chain 1 G153K: the screen value was -1.05.

As for chain 1 G16K, the screen value came to 0.284.

Turning to chain 1 E314A, the screen value was 0.0215.

With chain 1 E125L, the screen value was determined as 0.00114.

For chain 1 R163K, the screen value is -0.296.

Turning to chain 1 A453E, the screen value turned out to be 0.182.

In the case of chain 1 G189E, the screen value was -1.35.

The assay is the same for the next values; noted with them: with perilipin-5, mouse (mPlin5), transient co-transfection, IgG-coated LUMITRAC plates, 2 h at 4 °C, three PBS washes, Bright-Glo luciferase reagent, triplicates per assay, two …, parent: 0.46, not graded, scale: log2 fold change of co-immunoprecipitated luminescence relative to wild-type ATGL within each experiment.
As to chain 1 F35E, the screen value is -0.0352.

chain 1 F35A: the screen value was -0.0452.

chain 1 L159A: the screen value was -0.435.

As for chain 1 P156K, the screen value was -1.08.

For chain 1 G153A, the screen value is -0.506.

With chain 1 G153K, the screen value was -0.867.

Turning to chain 1 G16K, the screen value came to 0.354.

As for chain 1 E314A, the screen value was 0.421.

Consider chain 1 E125L, for which the screen value is -0.226.

As for chain 1 R163K, the screen value was determined as 0.00396.

Consider chain 1 A453E, for which the screen value is 0.52.

The assay is the same for the next values; noted with them: with perilipin-5, mouse (mPlin5), transient co-transfection, IgG-coated LUMITRAC plates, 2 h at 4 °C, three PBS washes, Bright-Glo luciferase reagent, triplicates per assay, two …, parent: 0.46, not graded, value at the no-binding floor (a bound), scale: log2 fold change of co-immunoprecipitated luminescence relative to wild-type ATGL within each experiment.
On to chain 1 G189E, for which the screen value was -1.51.

The next assay covers variants of B2. Described as above. The conditions noted are these: with perilipin-1, mouse (mPlin1), transient co-transfection, IgG-coated LUMITRAC plates, 2 h at 4 °C, three PBS washes, Bright-Glo luciferase reagent, triplicates per assay, two …, parent: 0.26, not graded, scale: log2 fold change of co-immunoprecipitated luminescence relative to wild-type ATGL within each experiment.
Regarding chain 1 L62A, the screen value turned out to be 0.475.

Regarding chain 1 L62K, the screen value amounted to 0.457.

As for chain 1 E125L, the screen value is -0.268.

Turning to chain 1 R113K, the screen value was -0.0594.

Take chain 1 R113L: the screen value was 0.128.

Take chain 1 G66A: the screen value was -0.406.

On to chain 1 G66L, for which the screen value is -0.803.

Take chain 1 S106K: the screen value is -0.529.

In the case of chain 1 Q140A, the screen value is -0.00146.

As for chain 1 Q140K, the screen value is -0.355.

On to chain 1 K92L, for which the screen value was found to be 0.107.

Consider chain 1 F348E, for which the screen value came to 0.112.

For the variant chain 1 Y415A, the screen value is -0.0219.

Regarding chain 1 E314A, the screen value was -0.247.

Consider chain 1 R163K, for which the screen value is -0.504.

Take chain 1 G16K: the screen value was determined as 0.265.

As to chain 1 A434L, the screen value was determined as 0.0211.

chain 1 R329E: the screen value was -0.367.

With chain 1 S158E, the screen value is -0.452.

In the case of chain 1 S158A, the screen value was -0.232.

Regarding chain 1 P86K, the screen value was -0.8.

With chain 1 L261E, the screen value is -0.624.

chain 1 L102K: the screen value is -1.19.

With chain 1 F35E, the screen value was -0.17.

On to chain 1 F35A, for which the screen value is -0.185.

On to chain 1 R95K, for which the screen value was -0.788.

Turning to chain 1 R95L, the screen value is 0.0463.

Regarding chain 1 P156K, the screen value is -0.552.

Take chain 1 P258L: the screen value is -0.67.

As for chain 1 G189E, the screen value was -1.

In the case of chain 1 I70A, the screen value is -0.501.

Regarding chain 1 I70K, the screen value is -0.495.

Turning to chain 1 K275A, the screen value was -0.55.

For chain 1 G153A, the screen value is -0.209.

On to chain 1 G153K, for which the screen value was -0.674.

Consider chain 1 S87A, for which the screen value came out at 0.0206.

chain 1 S87E: the screen value was -0.527.

Turning to chain 1 V328A, the screen value is -0.205.

chain 1 N180L: the screen value was 0.0119.

In the case of chain 1 R351L, the screen value is -0.000717.

Turning to chain 1 G59L, the screen value was -0.00134.

As to chain 1 E368A, the screen value is -0.0883.

For chain 1 A453E, the screen value came to 0.218.

As to chain 1 T41A, the screen value was -0.0364.

For the variant chain 1 Q396A, the screen value was 0.313.

On to chain 1 L159A, for which the screen value is -0.915.

Staying with this assay, now noted: with perilipin-1, mouse (mPlin1), transient co-transfection, IgG-coated LUMITRAC plates, 2 h at 4 °C, three PBS washes, Bright-Glo luciferase reagent, triplicates per assay, two …, parent: -0.37, not graded, scale: log2 fold change of co-immunoprecipitated luminescence relative to wild-type ATGL within each experiment.
As for chain 1 L62A, the screen value was -0.248.

With chain 1 L62K, the screen value turned out to be 0.284.

As for chain 1 E125L, the screen value is -0.225.

As to chain 1 R113K, the screen value worked out at 0.272.

In the case of chain 1 R113L, the screen value amounted to 0.163.

Turning to chain 1 G66A, the screen value worked out at 0.198.

As for chain 1 G66L, the screen value is -0.433.

Consider chain 1 S106K, for which the screen value was -0.667.

Consider chain 1 Q140A, for which the screen value is -0.191.

As to chain 1 Q140K, the screen value was 0.00731.

With chain 1 K92L, the screen value amounted to 0.166.

chain 1 F348E: the screen value was -0.626.

With chain 1 Y415A, the screen value was -0.00379.

For chain 1 E314A, the screen value came out at 0.211.

For the variant chain 1 R163K, the screen value is -0.582.

As for chain 1 G16K, the screen value stood at 0.718.

For chain 1 A434L, the screen value worked out at 0.452.

As to chain 1 R329E, the screen value was -0.537.

Take chain 1 S158E: the screen value is -0.376.

On to chain 1 S158A, for which the screen value turned out to be 0.188.

In the case of chain 1 P86K, the screen value was -0.498.

As to chain 1 L261E, the screen value is -1.14.

With chain 1 L102K, the screen value was -0.807.

As for chain 1 F35E, the screen value was -0.197.

With chain 1 F35A, the screen value is -0.158.

As to chain 1 R95K, the screen value was -0.635.

On to chain 1 R95L, for which the screen value turned out to be 0.332.

Turning to chain 1 P156K, the screen value was -0.726.

As for chain 1 P258L, the screen value is -1.35.

For the variant chain 1 G189E, the screen value was -1.43.

Turning to chain 1 I70A, the screen value was -0.781.

Take chain 1 I70K: the screen value was -0.759.

Consider chain 1 K275A, for which the screen value is -0.709.

In the case of chain 1 G153A, the screen value was -0.215.

chain 1 G153K: the screen value is -0.772.

Regarding chain 1 S87A, the screen value was -0.536.

chain 1 S87E: the screen value is -0.625.

Take chain 1 V328A: the screen value was -0.0406.

With chain 1 N180L, the screen value was -0.626.

For chain 1 R351L, the screen value was -0.298.

Take chain 1 G59L: the screen value was -0.613.

As for chain 1 E368A, the screen value was -0.602.

In the case of chain 1 A453E, the screen value was determined as 0.0778.

Regarding chain 1 T41A, the screen value is -0.45.

For chain 1 Q396A, the screen value is -0.0639.

Take chain 1 L159A: the screen value came out at 0.395.
